Here are results for one substance from patent US11225653B2, “Methods and compounds for reducing threonyl-tRNA synthetase activity” (University of Vermont and State Agricultural College, priority 2012, dated 2022).

One data set has as its target T1, human LARS (Homo sapiens, UniProt Q9P2J5).
T1 construct: His6 (N); made in house; host or cells: E. coli, plasmid pPROEX hTb-LARS
Put plainly: LARS steady state ATPase activity. The data set is classed as biochemical. As to conditions: 1 μM human LARS. How it is done:
LARS steady state ATPase activity was determined using the same procedure as for TARS aminoacylation with the following modifications. […] ATP (PerkinElmer, Waltham, Mass.) was added. Reactions were incubated for 3 minutes at 37° C. and initiated with the addition of 1 μM human LARS. At various time points 5 μl aliquots were quenched in 45 μl of 500 mM sodium acetate and 0.1% sodium dodecyl sulfate. For each sample, 1 μl was spotted onto a CCM cellulose PEI F plates (EMD) and resolved via thin-layer chromatography in 0.75 M potassium phosphate buffer mobile phase.

Data set [1] deals with chorioallantoic membrane (CAM). Put plainly: Chick chorioallantoic membrane (CAM) assay. It counts as in vivo, chicken. As to conditions: purified protein applied daily to sponge, scored over 72 h. How it is done: Chick Chorioallantoic Membrane Assay-Fertilized chicken eggs (Sunrise Farms, Catskill, N.Y.) day 1-2 post-laying were incubated in a humidified incubator at 37° C. for 72 h. Cleaned eggs were cracked and plated in a sterile 10 cm^2 tissue culture-treated dish and incubated at 37° C. for another 7 days. On developmental day 10, 1 mm^3 sterile gelatin sponge pieces (Surgifoam®; Johnson & Johnson Wound Management, Somerville, N.J.) were placed within the outer one-third of the membrane between large vessels. 40 μg/ml human bFGF and 2 μg/mL human VEGF were used as pro-angiogenic control compounds; 100 μg/mL retinoic acid (Sigma-Aldrich, St. Louis, Mo.) diluted in phosphate-buffered saline (PBS) was used as an angiostatic control. All compounds were applied in 10 μl to the CAM every 24 h for 72 h. Images were taken using a Leica MZ6 stereomicroscope every 24 h. Compounds were scored according to a modified version of Intensity Scoring as previously described (Ribatti, Nico et al. 2006). Briefly, each experimental condition was given a blinded score from 0-5 based on the change in the extent of vessel convergence and formation in proximity to the sponge from day 0 to day 3. Total score is averaged individual experimental condition scores from at least 15 replicates.
Fertilized chicken embryos were cultured ex-ova and, starting at developmental day 10, agents were applied daily to gelfoam sponges on the CAM. Images were recorded daily over 72 h and scored blindly according to a modified version Intensity Scoring as previously described (Ribatti, Nico et al. 2006). Additional details regarding methods are provided in the Methods and Materials section of Example 1.

Entries after “also recorded” stand apart in the source; their conditions may differ.

T1 sequence (Q9P2J5 whole entry): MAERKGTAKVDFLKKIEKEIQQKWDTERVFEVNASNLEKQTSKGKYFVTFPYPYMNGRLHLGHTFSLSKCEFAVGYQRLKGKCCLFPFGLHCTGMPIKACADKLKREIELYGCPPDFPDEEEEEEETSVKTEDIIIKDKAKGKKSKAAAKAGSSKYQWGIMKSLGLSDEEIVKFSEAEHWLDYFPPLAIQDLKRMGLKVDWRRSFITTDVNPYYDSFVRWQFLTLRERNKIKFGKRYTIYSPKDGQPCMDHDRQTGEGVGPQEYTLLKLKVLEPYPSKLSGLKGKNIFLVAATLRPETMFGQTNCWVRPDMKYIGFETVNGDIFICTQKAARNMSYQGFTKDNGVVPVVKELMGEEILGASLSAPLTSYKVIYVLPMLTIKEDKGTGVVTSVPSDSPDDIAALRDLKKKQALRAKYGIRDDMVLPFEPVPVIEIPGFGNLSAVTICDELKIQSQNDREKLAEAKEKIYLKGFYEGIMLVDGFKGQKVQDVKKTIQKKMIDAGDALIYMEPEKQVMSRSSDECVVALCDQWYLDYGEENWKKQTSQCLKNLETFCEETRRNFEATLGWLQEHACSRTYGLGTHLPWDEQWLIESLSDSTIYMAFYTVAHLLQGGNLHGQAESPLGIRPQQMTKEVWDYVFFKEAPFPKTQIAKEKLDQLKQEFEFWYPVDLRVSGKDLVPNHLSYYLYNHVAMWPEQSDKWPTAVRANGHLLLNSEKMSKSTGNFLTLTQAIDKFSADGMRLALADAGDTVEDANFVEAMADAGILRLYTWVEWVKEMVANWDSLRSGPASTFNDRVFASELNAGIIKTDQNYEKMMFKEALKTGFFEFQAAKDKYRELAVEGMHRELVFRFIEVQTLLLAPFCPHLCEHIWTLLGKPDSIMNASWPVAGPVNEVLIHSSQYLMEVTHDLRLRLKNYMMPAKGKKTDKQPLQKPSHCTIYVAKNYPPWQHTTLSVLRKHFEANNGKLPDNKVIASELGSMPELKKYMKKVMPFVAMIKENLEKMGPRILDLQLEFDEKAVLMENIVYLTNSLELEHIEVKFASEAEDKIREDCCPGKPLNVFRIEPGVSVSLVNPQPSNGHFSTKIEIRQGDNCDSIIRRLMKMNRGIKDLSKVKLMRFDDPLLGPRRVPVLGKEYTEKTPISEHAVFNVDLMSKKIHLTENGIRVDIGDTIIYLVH

Turning to “LARS: N-terminal His6-tagged human leucyl tRNA synthetase”, in the data set with human LARS, the “enzyme activity as conversion of 32P-ATP to AMP” value is on record as “exhibits enzyme activity”. The “vessel formation / vascularization on the CAM after applied protein” value in data set [1] was “no observable effect on vascularization; also recorded: has no effect on angiogenesis”.
